In paper PMC10140047:

Target: T1, TwinStrep-BICD2 WT (mouse), Q921C5
T1 chain: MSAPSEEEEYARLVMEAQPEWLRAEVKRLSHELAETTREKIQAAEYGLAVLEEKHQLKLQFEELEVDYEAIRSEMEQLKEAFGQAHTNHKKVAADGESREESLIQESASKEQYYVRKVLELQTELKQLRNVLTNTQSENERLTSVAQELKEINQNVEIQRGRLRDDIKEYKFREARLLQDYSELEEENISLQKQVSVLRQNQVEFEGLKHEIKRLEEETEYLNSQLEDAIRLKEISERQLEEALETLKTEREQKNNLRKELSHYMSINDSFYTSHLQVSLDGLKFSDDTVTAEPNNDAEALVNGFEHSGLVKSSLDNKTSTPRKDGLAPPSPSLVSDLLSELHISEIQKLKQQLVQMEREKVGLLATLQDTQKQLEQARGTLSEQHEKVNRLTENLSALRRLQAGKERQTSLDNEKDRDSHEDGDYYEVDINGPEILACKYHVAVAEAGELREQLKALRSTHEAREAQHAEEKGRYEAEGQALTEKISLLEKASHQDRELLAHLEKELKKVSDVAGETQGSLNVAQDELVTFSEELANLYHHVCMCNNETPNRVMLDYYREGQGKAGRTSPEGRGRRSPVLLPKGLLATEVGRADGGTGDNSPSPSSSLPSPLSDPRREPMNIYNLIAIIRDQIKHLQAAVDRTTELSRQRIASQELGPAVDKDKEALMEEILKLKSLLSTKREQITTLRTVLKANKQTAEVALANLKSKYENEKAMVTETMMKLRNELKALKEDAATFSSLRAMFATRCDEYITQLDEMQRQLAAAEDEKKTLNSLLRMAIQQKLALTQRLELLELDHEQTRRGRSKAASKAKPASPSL
Test: SEC-MALS; purified TwinStrep-BICD2 WT and S102D; predicted MW of ~190 kDa
Conditions: remark: other sources report otherwise

- stoichiometry N: 2
B1: TwinStrep-BICD2 WT, Q921C5 1-820 (natural protein)
chain: MSAPSEEEEYARLVMEAQPEWLRAEVKRLSHELAETTREKIQAAEYGLAVLEEKHQLKLQFEELEVDYEAIRSEMEQLKEAFGQAHTNHKKVAADGESREESLIQESASKEQYYVRKVLELQTELKQLRNVLTNTQSENERLTSVAQELKEINQNVEIQRGRLRDDIKEYKFREARLLQDYSELEEENISLQKQVSVLRQNQVEFEGLKHEIKRLEEETEYLNSQLEDAIRLKEISERQLEEALETLKTEREQKNNLRKELSHYMSINDSFYTSHLQVSLDGLKFSDDTVTAEPNNDAEALVNGFEHSGLVKSSLDNKTSTPRKDGLAPPSPSLVSDLLSELHISEIQKLKQQLVQMEREKVGLLATLQDTQKQLEQARGTLSEQHEKVNRLTENLSALRRLQAGKERQTSLDNEKDRDSHEDGDYYEVDINGPEILACKYHVAVAEAGELREQLKALRSTHEAREAQHAEEKGRYEAEGQALTEKISLLEKASHQDRELLAHLEKELKKVSDVAGETQGSLNVAQDELVTFSEELANLYHHVCMCNNETPNRVMLDYYREGQGKAGRTSPEGRGRRSPVLLPKGLLATEVGRADGGTGDNSPSPSSSLPSPLSDPRREPMNIYNLIAIIRDQIKHLQAAVDRTTELSRQRIASQELGPAVDKDKEALMEEILKLKSLLSTKREQITTLRTVLKANKQTAEVALANLKSKYENEKAMVTETMMKLRNELKALKEDAATFSSLRAMFATRCDEYITQLDEMQRQLAAAEDEKKTLNSLLRMAIQQKLALTQRLELLELDHEQTRRGRSKAASKAKPASPSL
